Experimental data from publication PMC6851490, “Target highlights in CASP13: Experimental target structures through the eyes of their authors” (Proteins, 2019).

Tests used:
[1] = biological target: gp37 (distal part) of the Salmonella phage S16 long tail fiber (Salmonella phage S16); test: crystal structure; distal part of gp37 connected to gp38, phage S16, PDB 6F45, 1.70 Å
[2] = biological target: Afp7, tube initiator of the antifeeding prophage (AFP) (Serratia entomophila); test: cryo-EM structure; needle of the AFP particle, threefold symmetric, 3.4 Å, PDB 6RBK
[3] = biological target: Afp16, cap protein of the antifeeding prophage (AFP) (Serratia entomophila); test: cryo-EM structure; apical end cap of the AFP particle in the extended state, sixfold symmetric, 3.3 Å, PDB 6RAP
[4] = biological target: Afp8, needle protein of the antifeeding prophage (AFP) (Serratia entomophila); test: cryo-EM structure; needle of the AFP particle, threefold symmetric, 3.4 Å, PDB 6RBK
[5] = biological target: Pentafunctional AROM complex from Chaetomium thermophilum (Chaetomium thermophilum); test: crystal structure; CtAROM, X-ray, 3.00 Å, no PDB id
[6] = biological target: Pentafunctional AROM complex from Chaetomium thermophilum (Chaetomium thermophilum); test: not stated; CtAROM before crystallisation; homodimer of about 340 kDa; method not given
Bd2924 = biological target: T1, Bd2924 (Bdellovibrio bacteriovorus, UniProt Q6MJ59); test: X-ray crystal structure, […] Å; format: binding; conditions: without C10-CoA; one FAD per monomer at the dimer interface
T1 construct: crystal structure residues 3 to 505; homo-tetramer (dimer of dimers)
T1 sequence (Q6MJ59 3-505): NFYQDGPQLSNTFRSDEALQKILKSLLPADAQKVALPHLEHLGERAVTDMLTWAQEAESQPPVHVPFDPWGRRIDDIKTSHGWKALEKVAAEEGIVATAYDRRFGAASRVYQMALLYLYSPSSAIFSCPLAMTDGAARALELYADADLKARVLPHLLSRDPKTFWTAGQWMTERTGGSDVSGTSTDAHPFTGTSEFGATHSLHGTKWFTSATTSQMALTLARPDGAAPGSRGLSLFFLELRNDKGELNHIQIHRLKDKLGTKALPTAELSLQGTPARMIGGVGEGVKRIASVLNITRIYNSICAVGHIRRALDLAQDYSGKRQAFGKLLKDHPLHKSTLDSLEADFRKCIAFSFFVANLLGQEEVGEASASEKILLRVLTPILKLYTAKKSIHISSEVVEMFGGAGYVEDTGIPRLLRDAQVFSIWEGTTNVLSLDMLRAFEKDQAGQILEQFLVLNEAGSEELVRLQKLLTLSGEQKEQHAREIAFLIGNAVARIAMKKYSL

[7] = biological target: CdiI^Kp342 immunity protein (Klebsiella pneumoniae 342); test: crystal structure; CdiA-CT•CdiI complex from K. pneumoniae 342, PDB 6CP9, 2.55 Å
[8] = biological target: Bd2924, putative acyl-CoA dehydrogenase (ACAD) from B. bacteriovorus (B. bacteriovorus); test: SEC; Bd2924 in solution, size exclusion chromatography
[9] = biological target: Bd2924, putative acyl-CoA dehydrogenase (ACAD) from B. bacteriovorus (B. bacteriovorus); test: crystal structure; Bd2924 with FAD, with and without C10-CoA, PDB 6SD8 and 6SDA
[10] = biological target: the molecule itself; test: crystal structure; MAJIN-TERB2 core complex, PDB 6GNX, X-ray, 2.90 Å
[11] = biological target: the molecule itself; test: crystal structure; recombinant AxlA with cleaved xyloglucan oligosaccharide, PDB 6DRU, 2.7 Å; quaternary assembly examined with EPPIC

“gp37 (distal part) of the Salmonella phage S16 long tail fiber (domain or fragment)” gave a stoichiometry N [1] of 3.

“Afp7, tube initiator of the antifeeding prophage (AFP) (natural protein)” was tested, and the stoichiometry N [2] was 6.

Work on “Afp16, cap protein of the antifeeding prophage (AFP) (natural protein)” yielded a stoichiometry N [3] of 6.

“Afp8, needle protein of the antifeeding prophage (AFP) (natural protein)” gave a stoichiometry N [4] of 3.

With “Pentafunctional AROM complex from Chaetomium thermophilum (enzyme)” the stoichiometry N [5] was 2 and the stoichiometry N [6] was 2.

In the case of `Cc1cc2nc3c(=O)[nH]c(=O)nc-3n(C[C@H](O)[C@H](O)[C@H](O)COP(=O)(O)OP(=O)(O)OC[C@H]3O[C@@H](n4cnc5c(N)ncnc54)[C@H](O)[C@@H]3O)c2cc1C` [FAD], the “X-ray crystal structure, 1.51 Å” value (Bd2924) is reported as “A single FAD molecule binds per monomer in a crevice located at the dimer interface”.

“CdiI^Kp342 immunity protein (natural protein)” was tested, and the stoichiometry N [7] was 2.

With “Bd2924, putative acyl-CoA dehydrogenase (ACAD) from B. bacteriovorus (enzyme)” the stoichiometry N [8] was 4 and the stoichiometry N [9] was 4.

B1: MAJIN (core of the human MAJIN-TERB2 complex) (domain or fragment)
chain: GSMSLKPFTYPFPETRFLHAGPNVYKFKIRYGKSIRGEEIENKEVITQELEDSVRVVLGNLDNLQPFATEHFIVFPYKSKWERVSHLKFKHGEIILIPYPFVFTLYVEMKWFHE
notes: MAJIN, human, the part in the MAJIN-TERB2 core complex; also called T0980s1; H0980 subunit A
In the case of B1, the “stoichiometry N” value [10] is reported as 2.

B2: α-xylosidase from Aspergillus niger (AxlA), glycoside hydrolase family 31 (enzyme, UniProt G3XMN9 19-736, looked up)
chain: TYFAPNSTGLRIQHGFETILIQPFGYDGFRVRAWPFRPPSGNEISFIYDPPIEGYEDTAHGMSYDTATTGTEPRTLRNGNIILRTTGWGGTTAGYRLSFYRVNDDGSETLLTNEYAPLKSLNPRYYYWPGPGAEFSAEFSFSATPDEQIYGTGTQQDHMINKKGSVIDMVNFNSYIPTPVFMSNKGYAFIWNMPAEGRMEFGTLRTRFTAASTTLVDYVIVAAQPGDYDTLQQRISALTGRAPAPPDFSLGYIQSKLRYENQTEVELLAQNFHDRNIPVSMIVIDYQSWAHQGDWALDPRLWPNVAQMSARVKNLTGAEMMASLWPSVADDSVNYAALQANGLLSATRDGPGTTDSWNGSYIRNYDSTNPSARKFLWSMLKKNYYDKGIKNFWIDQADGGALGEAYENNGQSTYIESIPFTLPNVNYAAGTQLSVGKLYPWAHQQAIEEGFRNATDTKEGSACDHVSLSRSGYIGSQRFCSMIWSGDTTSVWDTLAVQVASGLSAAATGWGWWTVDAGGFEVDSTVWWSGNIDTPEYRELYVRWLAWTTFLPFMRTHGSRTCYFQDAYTCANEPWSYGASNTPIIVSYIHLRYQLGAYLKSIFNQFHLTGRSIMRPLYMDFEKTDPKISQLVSSNSNYTTQQYMFGPRLLVSPVTLPNVTEWPVYLPQTGQNNTKPWTYWWTNETYAGGQVVKVPAPLQHIPVFHLGSREELLSGNVF
notes: AxlA, Aspergillus niger, UniProt G3XMN9; also called T1009; source: recombinant
For B2, the “stoichiometry N” value [11] was 2.
